According to publication PMC4106346, “The Oligomeric States of the Purified Sigma-1 Receptor Are Stabilized by Ligands” (The Journal of Biological Chemistry, 2014):

B1: TM2 domain of in the TOXCAT construct (between MBP and ToxR) [guinea pig] / itself (parent)
chain: WVFVNAGGWMGAMCLLHASL

Variants of: B1
Assay: TOXCAT
Details: with itself;; read off a plot

| Variant | response [%GpA] |
| --- | --- |
| chain 1 G8I | 100 |
| chain 1 G8L | 89 |
| chain 1 G7I | 94 |
| chain 1 G7L | 77 |
| chain 1 H17A | 20 |
| chain 1 G7L G8L | -2.7 |
